The text below walks through data of US20170275666A1, “Methods for Preparing Rebaudioside I and Uses” (The Coca-Cola Company, priority 2014, published 2017).

The labels stand for the following.
B1: UGT76G1var51: UGT76G1 variant, mutations K303G_S357C_S389E_V396F (protein, UniProt Q6VAB4 1-458, looked up, variant K303G S357C S389E V396F)
UDP-glycosyltransferase 76G1: MENKTETTVRRRRRIILFPVPFQGHINPILQLANVLYSKGFSITIFHTNFNKPKTSNYPHFTFRFILDNDPQDERISNLPTHGPLAGMRIPIINEHGADELRRELELLMLASEEDEEVSCLITDALWYFAQSVADSLNLRRLVLMTSSLFNFHAHVSLPQFDELGYLDPDDKTRLEEQASGFPMLKVKDIKSAYSNWQILKEILGKMIKQTKASSGVIWNSFKELEESELETVIREIPAPSFLIPLPKHLTASSSSLLDHDRTVFQWLDQQPPSSVLYVSFGSTSEVDEKDFLEIARGLVDSGQSFLWVVRPGFVKGSTWVEPLPDGFLGERGRIVKWVPQQEVLAHGAIGAFWTHCGWNSTLESVCEGVPMIFSDFGLDQPLNARYMEDVLKVGFYLENGWERGEIANAIRRVMVDEEGEYIRQNARVLKQKADVSLMKGGSSYESLESLVSYISSL
B2: UGT76G1var59: UGT76G1 variant, mutations I335V_K393G_V394I_Y397Q (protein, UniProt Q6VAB4 1-458, looked up, variant I335V K393G V394I Y397Q)
UDP-glycosyltransferase 76G1: MENKTETTVRRRRRIILFPVPFQGHINPILQLANVLYSKGFSITIFHTNFNKPKTSNYPHFTFRFILDNDPQDERISNLPTHGPLAGMRIPIINEHGADELRRELELLMLASEEDEEVSCLITDALWYFAQSVADSLNLRRLVLMTSSLFNFHAHVSLPQFDELGYLDPDDKTRLEEQASGFPMLKVKDIKSAYSNWQILKEILGKMIKQTKASSGVIWNSFKELEESELETVIREIPAPSFLIPLPKHLTASSSSLLDHDRTVFQWLDQQPPSSVLYVSFGSTSEVDEKDFLEIARGLVDSKQSFLWVVRPGFVKGSTWVEPLPDGFLGERGRVVKWVPQQEVLAHGAIGAFWTHSGWNSTLESVCEGVPMIFSDFGLDQPLNARYMSDVLGIGVQLENGWERGEIANAIRRVMVDEEGEYIRQNARVLKQKADVSLMKGGSSYESLESLVSYISSL
B3: UGT76G1var57: UGT76G1 variant, mutations S241I_T263S_L379G_A385T (protein, UniProt Q6VAB4 1-458, looked up, variant S241I T263S L379G A385T)
UDP-glycosyltransferase 76G1: MENKTETTVRRRRRIILFPVPFQGHINPILQLANVLYSKGFSITIFHTNFNKPKTSNYPHFTFRFILDNDPQDERISNLPTHGPLAGMRIPIINEHGADELRRELELLMLASEEDEEVSCLITDALWYFAQSVADSLNLRRLVLMTSSLFNFHAHVSLPQFDELGYLDPDDKTRLEEQASGFPMLKVKDIKSAYSNWQILKEILGKMIKQTKASSGVIWNSFKELEESELETVIREIPAPIFLIPLPKHLTASSSSLLDHDRSVFQWLDQQPPSSVLYVSFGSTSEVDEKDFLEIARGLVDSKQSFLWVVRPGFVKGSTWVEPLPDGFLGERGRIVKWVPQQEVLAHGAIGAFWTHSGWNSTLESVCEGVPMIFSDFGGDQPLNTRYMSDVLKVGVYLENGWERGEIANAIRRVMVDEEGEYIRQNARVLKQKADVSLMKGGSSYESLESLVSYISSL
B4: UGT76G1var56: UGT76G1 variant, mutations L246F_A352G_S357N_Q432E (protein, UniProt Q6VAB4 1-458, looked up, variant L246F A352G S357N Q432E)
UDP-glycosyltransferase 76G1: MENKTETTVRRRRRIILFPVPFQGHINPILQLANVLYSKGFSITIFHTNFNKPKTSNYPHFTFRFILDNDPQDERISNLPTHGPLAGMRIPIINEHGADELRRELELLMLASEEDEEVSCLITDALWYFAQSVADSLNLRRLVLMTSSLFNFHAHVSLPQFDELGYLDPDDKTRLEEQASGFPMLKVKDIKSAYSNWQILKEILGKMIKQTKASSGVIWNSFKELEESELETVIREIPAPSFLIPFPKHLTASSSSLLDHDRTVFQWLDQQPPSSVLYVSFGSTSEVDEKDFLEIARGLVDSKQSFLWVVRPGFVKGSTWVEPLPDGFLGERGRIVKWVPQQEVLAHGAIGGFWTHNGWNSTLESVCEGVPMIFSDFGLDQPLNARYMSDVLKVGVYLENGWERGEIANAIRRVMVDEEGEYIRQNARVLKEKADVSLMKGGSSYESLESLVSYISSL
B5: UGT76G1var54: UGT76G1 variant, mutations E229A_T284L_R334K_Q342E (protein, UniProt Q6VAB4 1-458, looked up, variant E229A T284L R334K Q342E)
UDP-glycosyltransferase 76G1: MENKTETTVRRRRRIILFPVPFQGHINPILQLANVLYSKGFSITIFHTNFNKPKTSNYPHFTFRFILDNDPQDERISNLPTHGPLAGMRIPIINEHGADELRRELELLMLASEEDEEVSCLITDALWYFAQSVADSLNLRRLVLMTSSLFNFHAHVSLPQFDELGYLDPDDKTRLEEQASGFPMLKVKDIKSAYSNWQILKEILGKMIKQTKASSGVIWNSFKELEESALETVIREIPAPSFLIPLPKHLTASSSSLLDHDRTVFQWLDQQPPSSVLYVSFGSLSEVDEKDFLEIARGLVDSKQSFLWVVRPGFVKGSTWVEPLPDGFLGERGKIVKWVPQEEVLAHGAIGAFWTHSGWNSTLESVCEGVPMIFSDFGLDQPLNARYMSDVLKVGVYLENGWERGEIANAIRRVMVDEEGEYIRQNARVLKQKADVSLMKGGSSYESLESLVSYISSL
B6: UGT76G1var58: UGT76G1 variant, mutations S357C_S375M_N409R_Q425E (protein, UniProt Q6VAB4 1-458, looked up, variant S357C S375M N409R Q425E)
UDP-glycosyltransferase 76G1: MENKTETTVRRRRRIILFPVPFQGHINPILQLANVLYSKGFSITIFHTNFNKPKTSNYPHFTFRFILDNDPQDERISNLPTHGPLAGMRIPIINEHGADELRRELELLMLASEEDEEVSCLITDALWYFAQSVADSLNLRRLVLMTSSLFNFHAHVSLPQFDELGYLDPDDKTRLEEQASGFPMLKVKDIKSAYSNWQILKEILGKMIKQTKASSGVIWNSFKELEESELETVIREIPAPSFLIPLPKHLTASSSSLLDHDRTVFQWLDQQPPSSVLYVSFGSTSEVDEKDFLEIARGLVDSKQSFLWVVRPGFVKGSTWVEPLPDGFLGERGRIVKWVPQQEVLAHGAIGAFWTHCGWNSTLESVCEGVPMIFMDFGLDQPLNARYMSDVLKVGVYLENGWERGEIARAIRRVMVDEEGEYIRENARVLKQKADVSLMKGGSSYESLESLVSYISSL
B7: UGT76G1var3: UGT76G1 variant, mutations I295T_S357C_V366I (protein, UniProt Q6VAB4 1-458, looked up, variant I295T S357C V366I)
UDP-glycosyltransferase 76G1: MENKTETTVRRRRRIILFPVPFQGHINPILQLANVLYSKGFSITIFHTNFNKPKTSNYPHFTFRFILDNDPQDERISNLPTHGPLAGMRIPIINEHGADELRRELELLMLASEEDEEVSCLITDALWYFAQSVADSLNLRRLVLMTSSLFNFHAHVSLPQFDELGYLDPDDKTRLEEQASGFPMLKVKDIKSAYSNWQILKEILGKMIKQTKASSGVIWNSFKELEESELETVIREIPAPSFLIPLPKHLTASSSSLLDHDRTVFQWLDQQPPSSVLYVSFGSTSEVDEKDFLETARGLVDSKQSFLWVVRPGFVKGSTWVEPLPDGFLGERGRIVKWVPQQEVLAHGAIGAFWTHCGWNSTLESICEGVPMIFSDFGLDQPLNARYMSDVLKVGVYLENGWERGEIANAIRRVMVDEEGEYIRQNARVLKQKADVSLMKGGSSYESLESLVSYISSL
B8: UGT76G1var52: UGT76G1 variant, mutations D301N_I373L_F377C_I407V (protein, UniProt Q6VAB4 1-458, looked up, variant D301N I373L F377C I407V)
UDP-glycosyltransferase 76G1: MENKTETTVRRRRRIILFPVPFQGHINPILQLANVLYSKGFSITIFHTNFNKPKTSNYPHFTFRFILDNDPQDERISNLPTHGPLAGMRIPIINEHGADELRRELELLMLASEEDEEVSCLITDALWYFAQSVADSLNLRRLVLMTSSLFNFHAHVSLPQFDELGYLDPDDKTRLEEQASGFPMLKVKDIKSAYSNWQILKEILGKMIKQTKASSGVIWNSFKELEESELETVIREIPAPSFLIPLPKHLTASSSSLLDHDRTVFQWLDQQPPSSVLYVSFGSTSEVDEKDFLEIARGLVNSKQSFLWVVRPGFVKGSTWVEPLPDGFLGERGRIVKWVPQQEVLAHGAIGAFWTHSGWNSTLESVCEGVPMLFSDCGLDQPLNARYMSDVLKVGVYLENGWERGEVANAIRRVMVDEEGEYIRQNARVLKQKADVSLMKGGSSYESLESLVSYISSL
B9: UGT76G1var53: UGT76G1 variant, mutations R334K_A352G_P382M_S389E (protein, UniProt Q6VAB4 1-458, looked up, variant R334K A352G P382M S389E)
UDP-glycosyltransferase 76G1: MENKTETTVRRRRRIILFPVPFQGHINPILQLANVLYSKGFSITIFHTNFNKPKTSNYPHFTFRFILDNDPQDERISNLPTHGPLAGMRIPIINEHGADELRRELELLMLASEEDEEVSCLITDALWYFAQSVADSLNLRRLVLMTSSLFNFHAHVSLPQFDELGYLDPDDKTRLEEQASGFPMLKVKDIKSAYSNWQILKEILGKMIKQTKASSGVIWNSFKELEESELETVIREIPAPSFLIPLPKHLTASSSSLLDHDRTVFQWLDQQPPSSVLYVSFGSTSEVDEKDFLEIARGLVDSKQSFLWVVRPGFVKGSTWVEPLPDGFLGERGKIVKWVPQQEVLAHGAIGGFWTHSGWNSTLESVCEGVPMIFSDFGLDQMLNARYMEDVLKVGVYLENGWERGEIANAIRRVMVDEEGEYIRQNARVLKQKADVSLMKGGSSYESLESLVSYISSL
B10: UGT76G1var55: UGT76G1 variant, mutations I295M_Q342E_V366I_N409R (protein, UniProt Q6VAB4 1-458, looked up, variant I295M Q342E V366I N409R)
UDP-glycosyltransferase 76G1: MENKTETTVRRRRRIILFPVPFQGHINPILQLANVLYSKGFSITIFHTNFNKPKTSNYPHFTFRFILDNDPQDERISNLPTHGPLAGMRIPIINEHGADELRRELELLMLASEEDEEVSCLITDALWYFAQSVADSLNLRRLVLMTSSLFNFHAHVSLPQFDELGYLDPDDKTRLEEQASGFPMLKVKDIKSAYSNWQILKEILGKMIKQTKASSGVIWNSFKELEESELETVIREIPAPSFLIPLPKHLTASSSSLLDHDRTVFQWLDQQPPSSVLYVSFGSTSEVDEKDFLEMARGLVDSKQSFLWVVRPGFVKGSTWVEPLPDGFLGERGRIVKWVPQEEVLAHGAIGAFWTHSGWNSTLESICEGVPMIFSDFGLDQPLNARYMSDVLKVGVYLENGWERGEIARAIRRVMVDEEGEYIRQNARVLKQKADVSLMKGGSSYESLESLVSYISSL

The data set can be described thus: Directed evolution of UGT76G1, conversion of Rebaudioside D to Rebaudioside M (round 1). It is filed as biochemical. The following applies: 0.5 mM Rebaudioside D, 2.5 mM UDP-Glucose, 100 μL fresh lysate, 30° C., pH 7.2. An outline of the steps: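 Conversion to Reb M and initial rate were measured by HPLC with CAD at 2, 4, 7 and 24 h, with reactions run at 30° C in 50 mM phosphate pH 7.2 containing 0.5 mM Reb D, 2.5 mM UDP-glucose and 3 mM MgCl2. Enzyme source: fresh lysates of E. coli BL21(DE3) expressing 3-5-mutation UGT76G1 variants.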
Turning to B1, the “Conversion Reb D to Reb M after 24 h (%)” value amounted to 18.7% and the “initial rate (Reb M area/min)” value worked out at 9.5E+06 Reb M area/min.

B2: the “Conversion Reb D to Reb M after 24 h (%)” value stood at 33.0% and the “initial rate (Reb M area/min)” value came to 2.7E+07 Reb M area/min.

With B3, the “Conversion Reb D to Reb M after 24 h (%)” value worked out at 0.8% and the “initial rate (Reb M area/min)” value stood at 1.5E+05 Reb M area/min.

As to B4, the “Conversion Reb D to Reb M after 24 h (%)” value was found to be 0.4% and the “initial rate (Reb M area/min)” value came to 4.1E+04 Reb M area/min.

As for B5, the “Conversion Reb D to Reb M after 24 h (%)” value was 0.7% and the “initial rate (Reb M area/min)” value was determined as 4.3E+05 Reb M area/min.

For B6, the “Conversion Reb D to Reb M after 24 h (%)” value stood at 7.5% and the “initial rate (Reb M area/min)” value is listed as 2.2E+06 Reb M area/min.

Consider B7, for which the “Conversion Reb D to Reb M after 24 h (%)” value worked out at 9.6% and the “initial rate (Reb M area/min)” value was determined as 1.6E+06 Reb M area/min.

As for B8, the “Conversion Reb D to Reb M after 24 h (%)” value came to 12.9% and the “initial rate (Reb M area/min)” value turned out to be 4.6E+06 Reb M area/min.

In the case of B9, the “Conversion Reb D to Reb M after 24 h (%)” value came out at 9.3% and the “initial rate (Reb M area/min)” value amounted to 4.1E+06 Reb M area/min.

As for B10, the “Conversion Reb D to Reb M after 24 h (%)” value stood at 1.0% and the “initial rate (Reb M area/min)” value is reported as 2.2E+05 Reb M area/min.
